B1: Endo-Si T190Q (protein)
chain: MNKRLLVKRTFGCVCAAAILGVAPLSHPTIVEAREELKMPNGLEQSIADVEAKIDALTYLSKNSKDEFKHSMYEIPSNREHKPVSPKQALQNAKKADAQAERLAKMTIPKKEELKALEGPLYGGYFRTWQDKTSDPTETNKVNSFGELPKEVDLAFVFHDYTKDYSLFWEELATKQVPKLNKQGTRVIRQIPWRFLSGADHSDISADKEKFPNTEAGNKALAKAIVDEYVYKYNLDGLDIDIERDSVPKVNDKEDPEALARTVEVFKEIGKLIGANGADKSRLLIMDTTYTAEENPLIKETAQYLNLLLVQVYGFSGENGNYLHHKNILDETSSMEGRWQGYSKYIRPEQYMVGFSFYEEKDFNNRWKDINEEDPSDPHIGEKIQGTRAERYAKWQPKTGGLKGGLFSYAIDRDGVAQPKQKTEHPELDKIVKSEYKVSKALKKLMMTDDQYQPIDQSDFPDKALRESIIKQVGTRRGDLERFKGTLRLDNPEIKDLTGLNKLKRVAKLELINLPKITKIDKDDLPQNLKPLTDNQKSNLEIKGTYDDSKLYKDIPAFDLVISGLSGLESLDISGHQRDTLSGIDASTLPSLKAINISDNHFDLAQGTENRHILDTILATLAKNGASTASFDKQKPKGLYPESYSTAPLHLQVGQGKINVIDDLIFGTRTNQNTLINTENDFEAYKEQTIQGKPFIAPDYLYDNFKVSYKEYSASIVDSTLAETTDKTIDTAKAETYQVTVSNKDGKTVHSVKVIVGDEKPMMVNLAQDAKIIGTDNMTQSAKVFDGQKDQFLLSWNKDSSVIFELKTPGTAKHWRFFDDGKNDSVTLSVFKGDASNFETEKDKAENWVEITKDSRKNDDKVFSSPLEVDNAKYLKVTIKKEAKYIYFNELQILGYPGVVAKKTADDLRPTEADKSDDKSDKNDTEAK
modifications: Amino acid sequence of Endo-Si T190Q
B2: Endo-Si D241M/Q311L (protein)
chain: B1 chain with Q190T, D241M, Q311L
modifications: Amino acid sequence of Endo-Si D241M/Q311L
B3: Endo-Si D241M/E360Q (protein)
chain: B1 chain with Q190T, D241M, E360Q
modifications: Amino acid sequence of Endo-Si D241M/E360Q

Where a chain is given by its changes, count along the chain named. In names and notes the source's numbering stands.

The test system of the first assay is (Fucα1,6)GlcNAc-mAb2. The experiment in a line: Transglycosylation activity with sugar chain oxazoline [N3-PEG(3)]-MSG1(9)-Ox as donor. The assay is classed as biochemical. Conditions: 1 h; donor [N3-PEG(3)]-MSG1(9)-Ox (8 eq.), enzyme 1.25 μg, 28° C., pH 7.5. The protocol: Transglycosylation activity was evaluated as follows. […] A sample was taken from each of the reaction solutions at 1, 2, 4, 6, and 24 hours after initiation of the reaction and analyzed for protein by a fully automated electrophoresis system as mentioned above. In the chromatogram obtained, an unreacted product and transglycosylated molecule, mAb2-(MSG1-N3)2 were confirmed as discrete peaks. The transglycosylation rate was calculated based on the peak-area ratio between the unreacted product and the transglycosylated molecule in accordance with the following expression.
Transglycosylation rate (%)=[[peak area of mAb2-(MSG1-N3)2-derived H chain]/{[peak area of (Fucα1,6)GlcNAc-mAb2-derived H chain]+[peak area of mAb2-(MSG1-N3)2-derived H chain]}]×100
Similarly, the transglycosylation rates of individual Endo-Si mutant enzymes at each time period for a reaction were calculated (Table 5).
Consider B1, for which the Transglycosylation rate was 97.2%.

With B2, the Transglycosylation rate came to 31.8%.

Take B3: the Transglycosylation rate is 99.1%.

Still in this assay, the particulars now being: 2 h; donor [N3-PEG(3)]-MSG1(9)-Ox (8 eq.), enzyme 1.25 μg, 28° C., pH 7.5.
For the molecule B1, the Transglycosylation rate is listed as 91.8%.

Take B2: the Transglycosylation rate stood at 59.1%.

For the molecule B3, the Transglycosylation rate is recorded as 99.0%.

Still in this assay, the particulars now being: 4 h; donor [N3-PEG(3)]-MSG1(9)-Ox (8 eq.), enzyme 1.25 μg, 28° C., pH 7.5.
Consider B1, for which the Transglycosylation rate came out at 81.8%.

Molecule B2 had a Transglycosylation rate of 95.9%.

B3 gave a Transglycosylation rate of 96.2%.

The assay is the same for the next values; noted with them: 6 h; donor [N3-PEG(3)]-MSG1(9)-Ox (8 eq.), enzyme 1.25 μg, 28° C., pH 7.5.
The molecule B1 yielded a Transglycosylation rate of 76.7%.

As to B2, the Transglycosylation rate was 99.5%.

For B3, the Transglycosylation rate amounted to 95.5%.

Still in this assay, the particulars now being: 24 h; donor [N3-PEG(3)]-MSG1(9)-Ox (8 eq.), enzyme 1.25 μg, 28° C., pH 7.5.
Turning to B1, the Transglycosylation rate came to 32.6%.

B2 yielded a Transglycosylation rate of 99.9%.

For B3, the Transglycosylation rate is given as 75.9%.

A further assay deals with (Fucα1,6)GlcNAc-mAb2. Description: Transglycosylation activity with SGP as donor, in combination with Endo-M N175Q. The assay is classed as biochemical. Conditions: 2 h; donor SGP (50 eq.), Endo-M N175Q 2.5 mU, Endo-Si enzyme 10 μg, 23° C., pH 7.5. The procedure:
Transglycosylation activity was evaluated as follows. A 50 mM (sodium) phosphate buffer (pH 7.5) solution (17 μL) containing (Fucα1,6)GlcNAc-mAb2 (0.5 mg), SGP (0.485 mg (50 eq.)), Endo-M N175Q (manufactured by Tokyo Kasei Kogyo Co., Ltd.) (2.5 mU) and each of various Endo-Si mutant enzymes (10 μg), was prepared and incubated at 23° C. A sample was taken from each of the reaction solutions at 2, 4, 6, 24, and 48 hours after initiation of the reaction and analyzed for protein by a fully automated electrophoresis system as mentioned above. In the chromatogram obtained, an unreacted product and a transglycosylated molecule, mAb2-(SG)2 are confirmed as discrete peaks. The transglycosylation rates were obtained based on the peak area ratio between the unreacted product and the transglycosylated molecule in accordance with the following expression.
Similarly, transglycosylation rates of individual Endo-Si mutant enzymes at each time period of a reaction were calculated (Table 6).
Consider B1, for which the Transglycosylation rate stood at 13.3%.

B2: the Transglycosylation rate is recorded as 6.4%.

Turning to B3, the Transglycosylation rate is listed as 11.9%.

Still in this assay, the particulars now being: 4 h; donor SGP (50 eq.), Endo-M N175Q 2.5 mU, Endo-Si enzyme 10 μg, 23° C., pH 7.5.
Take B1: the Transglycosylation rate came to 27.8%.

On to B2, for which the Transglycosylation rate came out at 13.7%.

For B3, the Transglycosylation rate amounted to 27.7%.

Staying with this assay, now noted: 6 h; donor SGP (50 eq.), Endo-M N175Q 2.5 mU, Endo-Si enzyme 10 μg, 23° C., pH 7.5.
Take B1: the Transglycosylation rate worked out at 43.2%.

In the case of B2, the Transglycosylation rate is 24.1%.

B3: the Transglycosylation rate turned out to be 42.7%.

Staying with this assay, now noted: 24 h; donor SGP (50 eq.), Endo-M N175Q 2.5 mU, Endo-Si enzyme 10 μg, 23° C., pH 7.5.
As to B1, the Transglycosylation rate was 93.8%.

Consider B2, for which the Transglycosylation rate stood at 79.7%.

For B3, the Transglycosylation rate is on record as 98.0%.

Staying with this assay, now noted: 48 h; donor SGP (50 eq.), Endo-M N175Q 2.5 mU, Endo-Si enzyme 10 μg, 23° C., pH 7.5.
Consider B1, for which the Transglycosylation rate was found to be 93.3%.

On to B2, for which the Transglycosylation rate was found to be 97.0%.

With B3, the Transglycosylation rate is recorded as 98.7%.

(Values after US20240336907A1, “NOVEL ENDO-ß-N-ACETYLGLUCOSAMINIDASE” (priority 2020, published 2024).)
